B1: wild-type mouse PADI6 (peptidyl arginine deiminase 6) (natural protein, UniProt Q8K3V4 1-682, looked up)
chain: MSFQNSLSLSLVNPTHALCMVGMEITLDISKCAPDKCKSFTIRGSPRILIHISSSVIAGKEDTVVWRSMNHPTVALVRMVAPSPTVDEDKVLVSYFCPDQEVPTATAVLFLTGIEISLEADIYRDGQLDMPSDKQAKKKWMWGMNGWGAILLVNCSPNAVGQPDEQSFQEGPREIQNLSQMNVTVEGPTSILQNYQLILHTSEEEAKKTRVYWSQRGSSAYELVVGPNKPVYLLPTFENRRKEAFYVEATEFPSPSFSGLISLSLSLVEKAHDECIPEIPLYKDTVMFRVAPYIFMPSTQMPLEVYLCRELQLQGFVDSVTKLSEKSKVQVVKVYEDPNRQSKWLQDEMAFCYTQAPHKTVSLILDTPRVSKLEDFPMKYTLTPGSGYLIRQTEDHRVASLDSIGNLMVSPPVKAQGKDYPLGRVLIGGSFYPSSEGRDMNKGLREFVYAQQVQAPVELFSDWLMTGHMDQFMCFVPTNDKNNDQKDFRLLLASPSACFELFEQKQKEGYGNVTLFEDIGAEQLLSNGRESKTISQILADKSFREQNTYVEKCISLNRTLLKTELGLEDKDIILIPQLFCLEQLTNVPSNQQSTKLFARPYFPDMLQIIVLGKNLGIPKPFGPKINGTCCLEEKVCGLLEPLGLKCTFIDDFDCYLANIGDVCASAIINRVPFAFKWWKMTP
B2: mouse PADI6 C663A (natural protein, UniProt Q8K3V4 1-682, looked up)
chain: MSFQNSLSLSLVNPTHALCMVGMEITLDISKCAPDKCKSFTIRGSPRILIHISSSVIAGKEDTVVWRSMNHPTVALVRMVAPSPTVDEDKVLVSYFCPDQEVPTATAVLFLTGIEISLEADIYRDGQLDMPSDKQAKKKWMWGMNGWGAILLVNCSPNAVGQPDEQSFQEGPREIQNLSQMNVTVEGPTSILQNYQLILHTSEEEAKKTRVYWSQRGSSAYELVVGPNKPVYLLPTFENRRKEAFYVEATEFPSPSFSGLISLSLSLVEKAHDECIPEIPLYKDTVMFRVAPYIFMPSTQMPLEVYLCRELQLQGFVDSVTKLSEKSKVQVVKVYEDPNRQSKWLQDEMAFCYTQAPHKTVSLILDTPRVSKLEDFPMKYTLTPGSGYLIRQTEDHRVASLDSIGNLMVSPPVKAQGKDYPLGRVLIGGSFYPSSEGRDMNKGLREFVYAQQVQAPVELFSDWLMTGHMDQFMCFVPTNDKNNDQKDFRLLLASPSACFELFEQKQKEGYGNVTLFEDIGAEQLLSNGRESKTISQILADKSFREQNTYVEKCISLNRTLLKTELGLEDKDIILIPQLFCLEQLTNVPSNQQSTKLFARPYFPDMLQIIVLGKNLGIPKPFGPKINGTCCLEEKVCGLLEPLGLKCTFIDDFDCYLANIGDVAASAIINRVPFAFKWWKMTP

Target: the molecule itself
Assay: mass photometry

Protein | stoichiometry N
B1 | 2
B2 | 2

Reference: article doi:10.1101/2025.02.21.639491 (bioRxiv, 2025)
